Experiment [1] addresses T1, recombinant protein TCRVB 6-5 (human, UniProt A0A0K0K1A5 22-114, limits assumed, captured on a Biotin CAP sensor chip (biotinylated; site not stated)).
T1 construct: also called TCRVβ 6-5; TCRβ V6-5*01
T1 sequence (TCR beta): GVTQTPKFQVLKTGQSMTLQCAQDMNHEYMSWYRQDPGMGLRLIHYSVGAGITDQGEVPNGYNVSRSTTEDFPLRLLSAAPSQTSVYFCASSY
Briefly: SPR, TCRVB 6-5 on Biotin CAP chip, compared with BJM0277. As for the experimental part:
(§1) TCRVB 6-5 at 5 ug/mL was immobilized on a Biotin CAP Series S Sensor Chip to 60 RU. A-H.52 was diluted to 50 nM and then serially diluted two fold. Association was 120 seconds, dissociation was 300 seconds. This assay was run in 1×HBS-EP+ Buffer pH 7.4 and 25 C. The data was fit using a 1:1 binding model. A-H.52 is a phage clones and is a monovalent scFv. A-H.52 has two mutations on CDRH1.
(§2) TCRVB 6-5 at 5 ug/mL was immobilized on a Biotin CAP Series S Sensor Chip to 60 RU. A-H.53 was diluted to 50 nM and then serially diluted two fold. Association was 120 seconds, dissociation was 300 seconds. This assay was run in 1×HBS-EP+ Buffer pH 7.4 and 25 C. The data was fit using a 1:1 binding model. A-H.53 (phage clone) affinity is in the pM range (Table 16).
(§3) TCRVB 6-5 at 5 ug/mL was immobilized on a Biotin CAP Series S Sensor Chip to 60 RU. A-H.54 was diluted to 50 nM and then serially diluted two fold. Association was 120 seconds, dissociation was 300 seconds. This assay was run in 1×HBS-EP+ Buffer pH 7.4 and 25 C. The data was fit using a 1:1 binding model.
Background: SPR reads the build-up and loss of mass on a sensor chip optically.

In experiment [2] the target is T1, recombinant protein TCRVB 6-5. Briefly: SPR, TCRVB 6-5 captured on Biotin CAP chip, analyte from 50 nM in two-fold dilutions, 1:1 model, 25 C. As for the experimental part:
as §1, §2, §3

The record followed here is patent publication US20210277119A1 (MARENGO THERAPEUTICS, published 2021).

Broadly, the Kd is the equilibrium constant for the complex coming apart.

B1: A-H.52 (scFv)
scFv: QVQLVQSGAEVKKPGSSVKVSCKASGYSFTLGYIHWVRQAPGQGLEWMGWFFPGSGNIKYNEKFKGRVTITADTSTSTAYMELSSLRSEDTAVYYCAGSYYSYDVLDYWGQGTTVTVSSGGGGSGGGGSGGGGSGGGGSDIQMTQSPSFLSASVGDRVTITCKASQNVGINVVWHQQKPGKAPKALIYSSSHRYSGVPSRFSGSGSGTEFTLTISSLQPEDFATYFCQQFKSYPLTFGQGTKLEIK
notes: Said to be a phage clone and a monovalent scFv; also called phage clone; monovalent scFv
As to B1, in experiment [1], the “fold greater affinity than BJM0277” value turned out to be 20 fold. For the same molecule, in experiment [2], the Kd was 1.76 nM.

B2: A-H.54 (scFv)
scFv: QVQLVQSGAEVKKPGSSVKVSCKASGYSFHNWYIHWVRQAPGQGLEWMGWFFPGSGNIKYNEKFKGRVTITADTSTSTAYMELSSLRSEDTAVYYCAGSYYSYDVLDYWGQGTTVTVSSGGGGSGGGGSGGGGSGGGGSDIQMTQSPSFLSASVGDRVTITCKASQNVGINVVWHQQKPGKAPKALIYSSSHRYSGVPSRFSGSGSGTEFTLTISSLQPEDFATYFCQQFKSYPLTFGQGTKLEIK
notes: Called a phage clone; also called phage clone
Consider B2, for which the “fold greater affinity than BJM0277” value in experiment [1] turned out to be 17 fold. Also, in experiment [2], the Kd is 2.22 nM.

B3: A-H.53 (scFv)
scFv: QVQLVQSGAEVKKPGSSVKVSCKASGYSFRLTYIHWVRQAPGQGLEWMGWFFPGSGNIKYNEKFKGRVTITADTSTSTAYMELSSLRSEDTAVYYCAGSYYSYDVLDYWGQGTTVTVSSGGGGSGGGGSGGGGSGGGGSDIQMTQSPSFLSASVGDRVTITCKASQNVGINVVWHQQKPGKAPKALIYSSSHRYSGVPSRFSGSGSGTEFTLTISSLQPEDFATYFCQQFKSYPLTFGQGTKLEIK
notes: as for B2
B3: in experiment [1], the “fold greater affinity than BJM0277” value stood at 200 fold. For the same molecule, the Kd in experiment [2] came to 0.165 nM.
